Laboratory results from US20250388638A1, “COMPOSITIONS AND METHODS FOR ORAL DELIVERY” (IMAGINE PHARMA LLC, priority 2021, published 2025).
Read-outs that look alike come from different tables or passages of the source.

B1: MADDAGAAGGPGGPGGPGMGNRGGFRGGFGSGIRGRGRGRGRGRGRGRGAHAEGTFTSDVSSYLEGQAAKEFIAWLVRGRG (protein)
chain: MADDAGAAGGPGGPGGPGMGNRGGFRGGFGSGIRGRGRGRGRGRGRGRGAHAEGTFTSDVSSYLEGQAAKEFIAWLVRGRG
B2: MADDAGAAGGPGGPGGPGMGNRGGFRGGFGSGIRGRGRGRGRGRGRGRGAHAEGTFTSDVSSYLEGQAAKEFIAWLVRGRGMADDAGAAGGPGGPGGPGMGNRGGFRGGFGSGIRGRGRGRGRGRGRGRGA (protein)
chain: MADDAGAAGGPGGPGGPGMGNRGGFRGGFGSGIRGRGRGRGRGRGRGRGAHAEGTFTSDVSSYLEGQAAKEFIAWLVRGRGMADDAGAAGGPGGPGGPGMGNRGGFRGGFGSGIRGRGRGRGRGRGRGRGA

Legend:
[1] = tested on: Caco-2 cells
From the text: (§1) (See Example 1) Caco-2 cells may be cultured in the presence of a polypeptide construct comprising a polypeptide and a heterologous polypeptide and analyzed using a fluorescent assay to determine the percentage of uptake of the polypeptide construct into the cells.
(§2) Polypeptide conjugates may be studied in vitro using Caco-2 cells, to assess uptake and bioactivity of the therapeutic polypeptide.
(§3) To mimic the steric conditions in the intestine in vivo, Caco-2 cells may be cultured on permeable filter inserts (such as available from Becton Dickenson, Corning, Costar).
(§4) Various polypeptide constructs were labeled with Alexa Fluor™ Labeling Kits (ThermoFisher), to generate fluorescently labeled polypeptide constructs. Caco-2 cells were seeded in 12-well plates and incubated for 4 hours with the labeled polypeptides at concentrations ranging from 2-10 ug/mL. Following incubation, the plates were read on a Tecan Infinite M Nano+ and washed gently several times with PBS, then given fresh media, and the plates were re-read. The % of fluorescence remaining in the dish represents the relative amount of uptake of polypeptide construct compared to the amount originally applied to the cells.

[2] = Blood levels of polypeptide fragment after PO administration of PT-OCT (FIG. 19); type: in vivo, Wistar rats; conditions: PO 600 μg/animal; 0, 3 and 5 hours
Description: Blood samples were taken from the animals at 0, 3 and 5 hours post administration.

[3] = tested on: Caco-2 cells; assay: Caco-2 uptake assay with fluorescently labeled polypeptide constructs; conditions: for uptake (% of fluorescence remaining): Caco-2 uptake assay of Example 1
From the text: as §1, §2, §3, §4

[4] = tested on: glucose-stimulated islets; assay: Inhibition of insulin secretion from glucose-stimulated islets (insulin ELISA); type: cell-based, human
Description: To determine if the polypeptide constructs comprising a polypeptide having an amino acid sequence identity according to SEQ ID NO:49 or 50 are biologically active following administration (PO), the ability of PCT-OCT to inhibit insulin secretion from glucose-stimulated islets was tested. Triplicates of 25 human islets (from a donor pancreas procured from an IIDP-approved islet center) were plated in a 96-well plate containing 100 μl of CMRL islet media (such as available from MediaTech). The islets were pre-incubated with either 100 μl (50%) serum (serum was collected from pancreas donor), 100 μl (50%) serum+PT-OCT, or 100 μl (50%) serum+PT-OCT that was exposed to thrombin for 45 minutes to cleave the polypeptide sequence from the therapeutic octapeptide of the polypeptide construct. Following a pre-incubation, the media and serum was removed and replaced with KREB's buffer solution containing 16.7 mM glucose, and incubated for an additional 30 minutes, at which point the KREB's buffer was collected. Insulin concentrations of the supernatant was measured using commercially available ELISA kits (such as available from Abcam). […] (See FIG. 19)

[5] = tested on: blood glucose levels; assay: Blood glucose levels after PO administration of GLP-1 agonist constructs; type: in vivo, Sprague Dawley rats; conditions: for blood glucose level: 600 ug PO
From the text: GLP-1 agonists, such as exenatide and liraglutide are desirable candidates for formulation as an oral dose therapeutic. To test if a polypeptide according to SEQ ID 1-40, when linked to a GLP-1 agonist as a polypeptide construct, facilitates the transport of GLP-1 agonists from the stomach to the blood, following oral administration. The amino acid sequences for exenatide and liraglutide were used to clone the sequences behind (downstream) of a polypeptide comprising an amino acid sequence according to SEQ ID NO 1, in order to generate, using an expression vector system, peptide constructs comprising an amino acid sequence according to SEQ ID NOs: 42,44 (referred to in the figures as “PT-GA1” and “PT-GA2”, respectively). Also, generated was a polypeptide construct according to SEQ ID NO:46 (“PT-GA2B”), comprised of the liraglutide sequence flanked by a polypeptide according to SEQ ID NO 1 on both the carboxy and amino terminal end of the liraglutide sequence. […] (See FIG. 11) To test efficacy and bioavailability in vivo, Sprague Dawley rats were administered (PO) 600 ug of the compositions comprising polypeptide constructs selected from PT-GA1, PT-GA2 or PT-GA2B, blood was drawn at 0, 4, and 6 hrs. post-treatment, and blood glucose levels were measured. Following treatment, the blood glucose levels of the PT-GA1 treated animals went from 107 mg/dl at 0 hrs to 118 mg/dL at 4 hrs and dropped to 87.5 mg/dl at 6 hrs. post treatment, while the PT-GA2 and PT-GA2B were 98 mg/dl, 126, 111 mg/dL; and 102 mg/dL, 105 mg/dL, 104 mg/dl respectively.

Row | Molecule | blood glucose level ([5]; 0 hrs) [mg/dL] | blood glucose level ([5]; 4 hrs post-treatment) [mg/dL] | blood glucose level ([5]; 6 hrs post-treatment) [mg/dL] | uptake (% of fluorescence remaining) [3] [%] | also measured
1 | MADDAGAAGGPGGPGGPGMGNRGGFRGGFGSGIRGRGRGRGRGRGRGRGAFCFWKTCT [SEQ ID 49] |  |  |  |  | polypeptide constructs administered to Caco-2 cells taken up [1]: approximately 38%
2 | H-Met-Ala-Asp-Asp-Ala-Gly-Ala-Ala-Gly-Gly-Pro-Gly-Gly-Pro-Gly-Gly-Pro-Gly-Met-Gly-Asn-Arg-Gly-Gly-Phe-Arg-Gly-Gly-Phe-Gly-Ser-Gly-Ile-Arg-Gly-Arg-Gly-Arg-Gly-Arg-Gly-Arg-Gly-Arg-Gly-Arg-Gly-Arg-Gly-Nle (triazol-propionyl-D-Phe-Cys-Phe-D-Tru-Lys-Thr-Cys-Thr-ol)-OH [SEQ ID 50] |  |  |  |  | uptake by Caco-2 cells / targeted delivery (in words) [1]: taken up by Caco-2 cells; levels of polypeptide fragment according to SEQ ID 53 in blood (in words) [2]: increasing levels; polypeptide constructs administered to Caco-2 cells taken up ([3]; in one example, PT-OCT fusion and PT-OCT click side-by-side): approximately 38%; relative insulin secretion by glucose-stimulated islet cells, compared to control (in words) [4]: reduction; decrease of insulin secretion of glucose-stimulated islets ([4]; human islets, 50% serum pre-incubation, 16.7 mM glucose): 46%
3 | B1 | 98 | 126 | 111 | 31.4 | blood glucose levels following oral administration (in words) ([5]; 600 μg in PBS): decrease in blood glucose levels
4 | B2 | 102 | 105 | 104 | 29.4 | 
